Laboratory results reported in article PMC9464622 (2022).

Molecular target: T1, LL-37 (Homo sapiens, UniProt P49913)
T1 chain: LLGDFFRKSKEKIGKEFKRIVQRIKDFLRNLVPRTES
Assay: tryptophan fluorescence

Kd: 1.22 nM
B1: rfhSP-A trimeric recombinant fragment (protein)
chain: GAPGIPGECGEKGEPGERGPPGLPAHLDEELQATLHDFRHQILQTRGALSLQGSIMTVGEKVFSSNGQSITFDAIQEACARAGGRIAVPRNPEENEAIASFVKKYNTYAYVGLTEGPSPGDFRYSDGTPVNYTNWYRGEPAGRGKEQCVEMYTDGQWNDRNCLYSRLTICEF
